Results on one molecule are retold here after US11110182B2, “Multifunctional RNA nanoparticles and methods for treating cancer and therapeutic resistant cancer” (University of Cincinnati, priority 2016, dated 2021).

The nature of the series: Biosafety during therapeutic treatment (body weight, organ H&E histopathology). The class given is in vivo, athymic nude mice. Here is the method: FIG. 12A) During therapeutic treatment to orthotopic xenograft mouse models, the body weights of mice were recorded every three days. FIG. 12B) After therapeutic treatment, major organs were excised, fixed in 10% neutral formalin buffer, embedded in paraffin, sectioned and examined for histopathology by H&E staining. Scale bar: 100 μm.
Migration and metastasis assay. The 8-μm-pore-size polycarbonate membrane, which separates the two chambers of a 6.5-mm Transwell (Costar), was coated with or without 1:8 DMEM-diluted Matrigel (Corning). […] Cells at top side of membranes were removed completely, and cells at the bottom side were examined with an Olympus SZX12 microscope and counted. • Mammosphere culture and breast cancer stem cell analyses. […] After treatment with or without 1 μM 4-OHT for 7 days, mammosphere formation was recorded using an Axiovert S100 TV inverted microscope (Zeiss). […] After resuspension with 0.5 mL PBS buffer, CD44^+/CD24^−/low cell population was analyzed by flow cytometry. • Orthotopic xenograft breast tumor mouse model, in vivo imaging and anti-tumor therapy. […] The tumor volume was monitored every 3 days, and tumor size was calculated using the formula: volume=0.5×(width)^2×(length). […]

B1: pRNA-HER2apt-siMED1: 3-WJ pRNA nanoparticle bearing a HER2-targeting RNA aptamer and two different MED1 siRNAs; strands p1 SEQ ID NO: 3, p2 SEQ ID NO: 4 (nucleic acid)
chain 1: GGACAGUGAAAGUGAGUCAAAGGAUCAAUCAUGGCCAAAGAUGUUACUUUGAGAGCCUU
chain 2: GGCUCUCAAAGUAACAUCUAAGGCCAUGUGUAUGUGGGGGGAGGACGAUGCGGUCUGCUGUGCUUGAUAUGCCCCAGACGACUCGCCCCCCACAUACUUUGUUGAUCCAAUGACUCACUUUCACUGUCCUU
modifications: 2'-F modification; third strand may lack entry; pRNA-HER2apt-siMED1, p1; pRNA-HER2apt-siMED1, p2
For the molecule B1, where the note is “H&E staining after therapeutic treatment”, the “histopathology of heart, liver, spleen, lung and kidney” value is listed as “no evidence of any apparent organ injury or disturbance”. In addition, for the setting “entire treatment period, systemic administration”, the mouse body weight entry is given as “no significant reduction”.
